Experimental data published in publication PMC11638003, “Plant phytochrome interactions decode light and temperature signals” (The Plant Cell, 2024).
No end group written: not given here.

T1: Arabidopsis thaliana phytochrome B residues 1 to 982, AtPhyB (1-982) (Arabidopsis thaliana, UniProt P14713 1-982, phycocyanobilin chromophore, covalently bound)
T1 construct: the oligomeric state is not measured directly here; also called AtPhyB982; source: E. coli LOBSTR, purified (Co2+-NTA IMAC, anion exchange); plasmid also encodes Synechocystis sp. heme oxygenase 1 and PcyA
T1 sequence (looked up): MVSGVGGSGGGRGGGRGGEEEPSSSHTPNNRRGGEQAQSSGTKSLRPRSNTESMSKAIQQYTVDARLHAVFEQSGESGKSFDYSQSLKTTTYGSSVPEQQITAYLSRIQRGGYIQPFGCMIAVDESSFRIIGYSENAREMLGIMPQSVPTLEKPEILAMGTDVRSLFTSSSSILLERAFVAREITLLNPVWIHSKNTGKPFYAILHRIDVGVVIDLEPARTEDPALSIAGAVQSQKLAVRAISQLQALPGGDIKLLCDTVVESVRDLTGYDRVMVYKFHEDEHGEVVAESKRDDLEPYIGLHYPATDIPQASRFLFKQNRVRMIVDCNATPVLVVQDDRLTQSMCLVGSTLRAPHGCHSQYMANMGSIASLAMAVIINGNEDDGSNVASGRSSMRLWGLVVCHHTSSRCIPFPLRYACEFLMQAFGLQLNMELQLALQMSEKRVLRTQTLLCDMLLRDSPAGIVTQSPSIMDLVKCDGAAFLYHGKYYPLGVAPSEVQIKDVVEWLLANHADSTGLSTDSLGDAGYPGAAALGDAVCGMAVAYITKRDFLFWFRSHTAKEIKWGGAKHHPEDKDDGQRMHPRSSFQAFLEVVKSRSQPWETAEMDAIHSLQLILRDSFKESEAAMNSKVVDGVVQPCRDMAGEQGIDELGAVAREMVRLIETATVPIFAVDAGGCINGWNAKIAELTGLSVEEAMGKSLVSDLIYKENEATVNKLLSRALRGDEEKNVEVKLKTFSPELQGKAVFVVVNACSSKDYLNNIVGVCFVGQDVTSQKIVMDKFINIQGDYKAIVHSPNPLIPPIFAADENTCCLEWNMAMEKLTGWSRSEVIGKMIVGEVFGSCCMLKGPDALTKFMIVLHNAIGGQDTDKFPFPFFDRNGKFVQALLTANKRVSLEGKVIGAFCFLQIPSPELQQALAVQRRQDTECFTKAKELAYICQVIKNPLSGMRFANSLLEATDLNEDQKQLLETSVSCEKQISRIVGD

T2: PIF6-mScarlet-I (Arabidopsis PIF6 residues 1 to 100 fused to mScarlet-I) (Arabidopsis thaliana, UniProt Q8L5W7 1-100)
T2 construct: mScarlet-I: GenBank APD76536; also called AtPIF6; source: E. coli LOBSTR, purified (IMAC, SENP2 cleavage, second IMAC, optionally anion exchange); not shown: His6-SUMO, N-terminal, cleaved
T2 sequence (looked up): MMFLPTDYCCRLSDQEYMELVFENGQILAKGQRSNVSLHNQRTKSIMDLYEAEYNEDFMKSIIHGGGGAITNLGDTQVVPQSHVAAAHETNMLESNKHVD

T3: P3A-mScarlet-I (Arabidopsis PIF3 residues 14 to 55, APB.A portion, fused to mScarlet-I) (Arabidopsis thaliana, UniProt O80536 14-55)
T3 construct: mScarlet-I: GenBank APD76536; source: E. coli LOBSTR, purified (IMAC, SENP2 cleavage, second IMAC, optionally anion exchange); not shown: His6-SUMO, N-terminal, cleaved; mScarlet-I, C-terminal, kept
T3 chain (looked up): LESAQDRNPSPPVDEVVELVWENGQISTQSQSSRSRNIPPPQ

T4: PIF3-mScarlet-I (Arabidopsis PIF3 residues 1 to 100 fused to mScarlet-I) (Arabidopsis thaliana, UniProt O80536 1-100)
T4 construct: mScarlet-I: GenBank APD76536; also called AtPIF3; source: E. coli LOBSTR, purified (IMAC, SENP2 cleavage, second IMAC, optionally anion exchange); not shown: His6-SUMO, N-terminal, cleaved
T4 sequence (looked up): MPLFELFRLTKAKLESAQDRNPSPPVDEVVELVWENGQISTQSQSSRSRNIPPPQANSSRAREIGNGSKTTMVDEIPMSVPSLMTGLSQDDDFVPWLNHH

B1: P6A-mScarlet-I (Arabidopsis PIF6 residues 14 to 53, APB.A portion, fused to mScarlet-I) (domain or fragment, Arabidopsis thaliana, UniProt Q8L5W7 14-53, looked up)
chain: DQEYMELVFENGQILAKGQRSNVSLHNQRTKSIMDLYEAE-{mScarlet‑I}
notes: mScarlet-I: GenBank APD76536; source: E. coli LOBSTR, purified (IMAC, SENP2 cleavage, second IMAC, optionally anion exchange); not shown: His6-SUMO, N-terminal, cleaved; mScarlet-I, C-terminal, kept
B2: Arabidopsis thaliana phytochrome B, N-terminal fragment encompassing the N-terminal extension (NTE) and the photosensory core module (AtPhyB PCM) (domain or fragment, UniProt P14713 1-651, looked up)
chain: MVSGVGGSGGGRGGGRGGEEEPSSSHTPNNRRGGEQAQSSGTKSLRPRSNTESMSKAIQQYTVDARLHAVFEQSGESGKSFDYSQSLKTTTYGSSVPEQQITAYLSRIQRGGYIQPFGCMIAVDESSFRIIGYSENAREMLGIMPQSVPTLEKPEILAMGTDVRSLFTSSSSILLERAFVAREITLLNPVWIHSKNTGKPFYAILHRIDVGVVIDLEPARTEDPALSIAGAVQSQKLAVRAISQLQALPGGDIKLLCDTVVESVRDLTGYDRVMVYKFHEDEHGEVVAESKRDDLEPYIGLHYPATDIPQASRFLFKQNRVRMIVDCNATPVLVVQDDRLTQSMCLVGSTLRAPHGCHSQYMANMGSIASLAMAVIINGNEDDGSNVASGRSSMRLWGLVVCHHTSSRCIPFPLRYACEFLMQAFGLQLNMELQLALQMSEKRVLRTQTLLCDMLLRDSPAGIVTQSPSIMDLVKCDGAAFLYHGKYYPLGVAPSEVQIKDVVEWLLANHADSTGLSTDSLGDAGYPGAAALGDAVCGMAVAYITKRDFLFWFRSHTAKEIKWGGAKHHPEDKDDGQRMHPRSSFQAFLEVVKSRSQPWETAEMDAIHSLQLILRDSFKESEAAMNSKVVDGVVQPCRDMAGEQGIDELGA
modifications: phycocyanobilin chromophore, covalently bound
notes: Phytochrome B, Arabidopsis thaliana, GenBank CAA35222.1; N-terminal fragment with the NTE and the PCM (nPAS-GAF-PHY), lacking PAS1, PAS2 and the HKRD; source: E. coli LOBSTR, purified (Co2+-NTA IMAC, anion exchange); plasmid also encodes Synechocystis sp. heme oxygenase 1 and PcyA

How the values were obtained:
Settings in all cases: both partners purified
[1] = biological target: B2; assay: FRET or BRET; as a5 (association and dissociation kinetics after a red-light pulse) at several temperatures up to 30 °C; values told for 30 °C or for 30 °C against 15 °C
[2] = biological target: B2; assay: FRET or BRET; equilibrium titration: 20 nM P6A-mScarlet-I with 0 to 2,000 nM AtPhyB PCM at 15 °C after red light (658 nm); 50 mM Tris/HCl pH 8.0, 20 mM NaCl, 100 μg/mL BSA; single-site binding isotherm
[3] = biological target: T1, Arabidopsis thaliana phytochrome B …; assay: FRET or BRET; association kinetics at 15 °C after a 0.5-s pulse of red light (658 nm, 69 mW cm^-2, optical shutter); 20 nM PIF-mScarlet-I variant with 500 to 2,000 nM AtPhyB PCM, or 30 nM P6A-mScarlet-I with 750 to 2,500 nM AtPhyB (1-982); 50 mM Tris/HCl pH 8.0, 20 mM NaCl; pseudo-first-order, linear fit of koFR against the AtPhyB concentration; kaFR corrected for the Pfr fraction; Kd calculated from kdFR and kaFR …
[4] = biological target: B2; assay: as above
[5] = biological target: T1, Arabidopsis thaliana phytochrome B …; assay: as above; remark: listed apart in the source
[6] = biological target: B1; assay: FRET or BRET; as a5 (association and dissociation kinetics after a red-light pulse) at several temperatures up to 30 °C; values told for 30 °C or for 30 °C against 15 °C
[7] = biological target: T2, PIF6-mScarlet-I (Arabidopsis PIF6 …); assay: as above
[8] = biological target: B1; assay: FRET or BRET; equilibrium titration: 20 nM P6A-mScarlet-I with 0 to 2,000 nM AtPhyB PCM at 15 °C after red light (658 nm); 50 mM Tris/HCl pH 8.0, 20 mM NaCl, 100 μg/mL BSA; single-site binding isotherm
[9] = biological target: B1; assay: FRET or BRET; dissociation kinetics at 15 °C under continuous far-red light (733 nm, 42 mW cm^-2) after saturating red light; same samples as a5; consecutive model (Pfr to Pr reversion, then dissociation); kaR fixed at 0 (Pr state)
[10] = biological target: T2, PIF6-mScarlet-I (Arabidopsis PIF6 …); assay: as above
[11] = biological target: T3, P3A-mScarlet-I (Arabidopsis PIF3 …); assay: as above
[12] = biological target: T4, PIF3-mScarlet-I (Arabidopsis PIF3 …); assay: as above

| Kd [1] [nM] | Kd [2] [nM] | Kd [3] [nM] | Kd [4] [nM] | koff [4] [s⁻¹] | kon [4] [M⁻¹ s⁻¹] | Kd [5] [nM] | koff [5] [s⁻¹] | kon [5] [M⁻¹ s⁻¹] | fold change of kaFR, 30 °C against 15 °C [6] [fold] | fold change of kdFR, 30 °C against 15 °C [6] [fold] | fold reduction of the affinity, 30 °C against 15 °C [7] [fold] | KD on the total AtPhyB concentration (not corrected for the Pfr fraction) [8] [nM] | kdR (dissociation rate constant of the complex in the Pr state) [9] [s⁻¹] | kdR (dissociation rate constant of the complex in the Pr state) [10] [s⁻¹] | kdR (dissociation rate constant of the complex in the Pr state) [11] [s⁻¹] | kdR (dissociation rate constant of the complex in the Pr state) [12] [s⁻¹] | Binder |
| --- | --- | --- | --- | --- | --- | --- | --- | --- | --- | --- | --- | --- | --- | --- | --- | --- | --- |
| ~900 | 130 ± 80 | 1400 | 183 ± 48 | 0.11 | 610000 | 1050 ± 240 | 0.095 | 90000 |  |  |  |  |  |  |  |  | B1 |
|  |  |  |  |  |  |  |  |  | 1.3 | 6.5 | ~5 | 180 ± 110 | 2.5 | 0.26 | 1.9 | 1.6 | B2 |
